Experimental data reported in article PMC5089960 (Angewandte Chemie (International ed. in English), 2016).

Molecular target: the molecule itself
Test: crystal structure

B1: PsoE (enzyme, A. fumigatus)
chain: MVFGTLYTFPGDQCRTIAIKAVAKANGLDLDIRETPRTPDHLSISKLGKVPAFQGADSFKLFECMAIALYITSQNEQTTLLGKDKKEYAEIIKWMSFFNTEIVILMTQQLLPQLGVIPYDRDQVEFFANMTQRSVDVVEEYLQDRTFLVGDQLSLADLFCAGNISLGFQFFYGKAWRQQNPNVSRWYEMVCHQPIYAAVTDKFQLLDEPKLTNNPPEKKPETVPKNGAAVAIEATQA
  stoichiometry N: 2
